This note sets out measurements from IntAct's records for PubMed 20453063.

In this test the target is chd8_human CHD8 (UniProt Q9HCK8).
Chain of UniProt Q9HCK8 (Q9HCK8 whole entry): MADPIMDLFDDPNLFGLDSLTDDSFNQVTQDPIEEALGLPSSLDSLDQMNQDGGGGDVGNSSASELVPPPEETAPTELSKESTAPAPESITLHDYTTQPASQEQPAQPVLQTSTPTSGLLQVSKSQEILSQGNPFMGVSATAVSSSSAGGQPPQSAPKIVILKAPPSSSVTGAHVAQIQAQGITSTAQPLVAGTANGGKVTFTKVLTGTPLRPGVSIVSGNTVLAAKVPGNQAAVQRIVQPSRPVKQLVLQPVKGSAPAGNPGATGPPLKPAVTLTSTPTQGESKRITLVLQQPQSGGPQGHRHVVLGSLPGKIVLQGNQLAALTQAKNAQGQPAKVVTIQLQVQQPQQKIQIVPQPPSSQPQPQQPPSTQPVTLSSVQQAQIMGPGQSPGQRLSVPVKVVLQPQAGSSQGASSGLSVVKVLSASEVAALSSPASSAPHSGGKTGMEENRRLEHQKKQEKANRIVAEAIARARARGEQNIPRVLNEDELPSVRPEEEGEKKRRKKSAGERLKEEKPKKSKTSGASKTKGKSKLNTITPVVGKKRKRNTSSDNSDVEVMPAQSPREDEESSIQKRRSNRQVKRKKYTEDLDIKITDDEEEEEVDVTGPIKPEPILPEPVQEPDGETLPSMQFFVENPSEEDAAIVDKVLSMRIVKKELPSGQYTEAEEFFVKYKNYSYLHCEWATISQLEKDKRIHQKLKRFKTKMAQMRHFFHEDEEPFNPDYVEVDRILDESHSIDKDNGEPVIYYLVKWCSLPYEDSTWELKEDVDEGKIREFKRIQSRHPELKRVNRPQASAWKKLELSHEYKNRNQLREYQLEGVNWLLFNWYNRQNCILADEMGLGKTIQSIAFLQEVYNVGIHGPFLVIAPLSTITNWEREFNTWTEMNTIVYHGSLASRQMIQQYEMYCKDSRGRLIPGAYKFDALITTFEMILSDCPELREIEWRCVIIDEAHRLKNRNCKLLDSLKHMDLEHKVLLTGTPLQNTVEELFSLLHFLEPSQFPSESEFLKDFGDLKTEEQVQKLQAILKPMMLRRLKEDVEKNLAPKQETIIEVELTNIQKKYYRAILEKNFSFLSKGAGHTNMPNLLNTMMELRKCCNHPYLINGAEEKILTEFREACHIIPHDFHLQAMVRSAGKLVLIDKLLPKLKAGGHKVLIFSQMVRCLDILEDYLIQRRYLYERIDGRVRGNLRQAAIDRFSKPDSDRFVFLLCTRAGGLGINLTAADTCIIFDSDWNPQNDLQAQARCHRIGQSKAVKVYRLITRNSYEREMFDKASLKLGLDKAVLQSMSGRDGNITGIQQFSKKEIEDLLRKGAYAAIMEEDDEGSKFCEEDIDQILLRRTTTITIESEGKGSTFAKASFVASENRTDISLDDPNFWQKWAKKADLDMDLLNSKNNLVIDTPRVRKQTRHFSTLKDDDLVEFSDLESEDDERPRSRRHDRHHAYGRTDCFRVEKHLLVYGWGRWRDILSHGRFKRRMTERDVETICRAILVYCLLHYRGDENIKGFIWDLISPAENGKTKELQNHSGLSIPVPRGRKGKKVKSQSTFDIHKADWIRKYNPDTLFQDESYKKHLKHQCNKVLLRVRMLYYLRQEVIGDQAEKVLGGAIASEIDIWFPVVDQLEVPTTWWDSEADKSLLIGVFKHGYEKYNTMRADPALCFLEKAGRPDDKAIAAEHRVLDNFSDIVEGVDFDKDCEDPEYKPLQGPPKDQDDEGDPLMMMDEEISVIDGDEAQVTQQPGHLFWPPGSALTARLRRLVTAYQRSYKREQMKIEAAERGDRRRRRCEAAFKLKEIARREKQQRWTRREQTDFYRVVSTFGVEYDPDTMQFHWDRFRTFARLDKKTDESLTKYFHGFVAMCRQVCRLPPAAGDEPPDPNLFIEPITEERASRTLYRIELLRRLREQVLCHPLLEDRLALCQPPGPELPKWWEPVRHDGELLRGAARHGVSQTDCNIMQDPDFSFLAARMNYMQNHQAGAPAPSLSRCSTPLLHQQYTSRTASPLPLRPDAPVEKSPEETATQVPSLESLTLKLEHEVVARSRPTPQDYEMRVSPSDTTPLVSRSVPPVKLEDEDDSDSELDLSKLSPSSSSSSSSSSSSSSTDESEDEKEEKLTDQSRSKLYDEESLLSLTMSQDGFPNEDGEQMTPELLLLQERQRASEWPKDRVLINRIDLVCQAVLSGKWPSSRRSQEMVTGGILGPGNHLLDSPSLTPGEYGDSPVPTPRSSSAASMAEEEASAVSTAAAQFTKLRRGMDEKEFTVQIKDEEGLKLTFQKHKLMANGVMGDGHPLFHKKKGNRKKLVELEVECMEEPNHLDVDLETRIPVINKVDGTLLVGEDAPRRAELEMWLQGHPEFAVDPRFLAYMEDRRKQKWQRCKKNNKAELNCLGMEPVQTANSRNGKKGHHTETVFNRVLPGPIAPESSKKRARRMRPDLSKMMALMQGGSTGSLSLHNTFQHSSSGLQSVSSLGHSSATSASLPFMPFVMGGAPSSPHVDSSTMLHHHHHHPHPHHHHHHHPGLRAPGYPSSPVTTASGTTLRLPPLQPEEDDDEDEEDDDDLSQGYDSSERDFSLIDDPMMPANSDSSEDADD
On to “Chromodomain-helicase-DNA-binding protein 7 (Homo sapiens), Q9P2D1 G2108R”, for which the “effect of a mutation on the interaction” value is “disrupting interaction”. With “Chromodomain-helicase-DNA-binding protein 7 (Homo sapiens), Q9P2D1 H2096R” the entry was “disrupting interaction”; with “Chromodomain-helicase-DNA-binding protein 7 (Homo sapiens), Q9P2D1 W2091R”, “disrupting interaction”.
